# Measured values published in patent publication US7267960 (Amgen, dated 2007).
# T1: human Necl1 expressed on transduced EL4 cells (human, UniProt Q8N126 25-398)
# T1 construct: whole, on cells
# T1 sequence (looked up): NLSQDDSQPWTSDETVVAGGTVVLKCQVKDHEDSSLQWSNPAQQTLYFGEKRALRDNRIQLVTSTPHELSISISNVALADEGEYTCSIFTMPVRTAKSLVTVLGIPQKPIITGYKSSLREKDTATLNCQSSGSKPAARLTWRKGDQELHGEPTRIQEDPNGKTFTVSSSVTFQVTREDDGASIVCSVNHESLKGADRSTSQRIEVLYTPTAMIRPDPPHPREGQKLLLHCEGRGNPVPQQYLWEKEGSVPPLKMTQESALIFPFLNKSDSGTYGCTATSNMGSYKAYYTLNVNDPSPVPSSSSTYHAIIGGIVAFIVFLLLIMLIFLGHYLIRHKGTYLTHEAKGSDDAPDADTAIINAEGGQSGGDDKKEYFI
# T2: human LDCAM, full length membrane-bound, expressed on transfected or transduced cells (human, UniProt Q9BY67 39-442)
# T2 construct: also called B7L-1 counter receptor; Igsf4
# T2 sequence: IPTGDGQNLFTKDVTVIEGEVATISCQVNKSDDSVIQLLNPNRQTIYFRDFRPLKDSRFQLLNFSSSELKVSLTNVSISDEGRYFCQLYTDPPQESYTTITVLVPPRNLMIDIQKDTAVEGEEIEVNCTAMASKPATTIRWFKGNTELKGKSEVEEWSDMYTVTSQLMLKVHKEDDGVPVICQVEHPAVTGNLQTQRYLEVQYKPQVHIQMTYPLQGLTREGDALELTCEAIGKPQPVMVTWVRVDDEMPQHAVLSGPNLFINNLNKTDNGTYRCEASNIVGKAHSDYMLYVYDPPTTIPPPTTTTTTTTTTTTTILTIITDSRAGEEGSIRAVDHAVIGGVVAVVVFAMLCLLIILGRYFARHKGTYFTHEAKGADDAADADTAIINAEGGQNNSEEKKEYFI
# B1: soluble recombinant human CRTAM-Fc (Fc fusion)
# chain: SLTNHTETITVEEGQTLTLKCVTSLRKNSSLQWLTPSGFTIFLNEYPALKNSKYQLLHHSANQLSITVPNVTLQDEGVYKCLHYSDSVSTKEVKVIVLATPFKPILEASVIRKQNGEEHVVLMCSTMRSKPPPQITWLLGNSMEVSGGTLHEFETDGKKCNTTSTLIILSYGKNSTVDCIIRHRGLQGRKLVAPFRFEDLVTDEETASDALERNSLSTQDPQQPTSTVSVTEDSSTSEIDKEEKEQTTQDPDLTTEANPQYLGLARKKSG
# notes: also called huCRTAM-Fc; not shown: Fc part not described
# Columns and labels:
# [1] = target: T1, human Necl1 expressed on transduced EL4 …; experiment: flow cytometry on transduced EL4 cells
# [2] = target: T2, human LDCAM, full length …; experiment: flow cytometry on EL4 cells transduced with human LDCAM (legend of FIG. 15)
binder,measurement,setting,value
B1,binding result,[1],no binding
same,binding result,[2],binds
